Laboratory results as given in patent US20220016243A1 (published 2022).

Biological target: T1, TIGIT (T-cell immunoreceptor with Ig and ITIM domains), peripheral TIGIT receptors on patients' CD4+ T cells, … (human (patients), UniProt Q495A1 22-244)
T1 construct: whole, on cells; Endogenous receptor on patients' peripheral immune cells; Occupancy was measured ex vivo after dosing with tiragolumab
T1 sequence (looked up): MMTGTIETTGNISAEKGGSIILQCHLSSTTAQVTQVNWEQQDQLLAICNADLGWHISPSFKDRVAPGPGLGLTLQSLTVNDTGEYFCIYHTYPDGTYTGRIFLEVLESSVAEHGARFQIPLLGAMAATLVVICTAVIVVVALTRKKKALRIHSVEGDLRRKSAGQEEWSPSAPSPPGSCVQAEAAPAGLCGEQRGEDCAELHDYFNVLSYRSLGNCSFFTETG
Experiment: receptor occupancy on peripheral CD8+ T cells and NK cells of patients dosed at 2-1200 mg Q3W (Phase Ia, Study GO30103)

B1: tiragolumab (antibody, human IgG1, kappa, V domains shown)
VH: EVQLQQSGPGLVKPSQTLSLTCAISGDSVSSNSAAWNWIRQSPSRGLEWLGKTYYRFKWYSDYAVSVKGRITINPDTSKNQFSLQLNSVTPEDTAVFYCTRESTTYDLLAGPFDYWGQGTLVTVSS
VL: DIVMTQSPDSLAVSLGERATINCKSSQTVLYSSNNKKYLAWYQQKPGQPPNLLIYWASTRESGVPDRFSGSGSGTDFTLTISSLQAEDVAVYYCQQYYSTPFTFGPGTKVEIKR
notes: also called MTIG7192A; RG6058
B1: binds.
